Measured values reported in the supplement of paper PMC10567573.

B1: SMTNL2 (parent)
chain: AFTMAENLANCERLIEVEDMMVMG
B2: TBC1D10A (parent)
chain: WCLVQICEKYLPGYYSEKLEAIQL

Variants of: B1
Experiment: protein stability index of a GFP-peptide fusion (GPS, HEK-293T) (PSI 1-6); higher = more stable
Details: c terminus: a fixed tail appended
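Also: lentivirally expressed fusions sorted by FACS into six bins by GFP to DsRed ratio, PSI derived from sequencing read proportions per bin multiplied by bin number.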

Protein stability index of substitutions, site by site:
F2: Q 3.22; V 3.18; A 3.7; N 3.95; D 4.48; W 2.07; C 3.14; L 2.27; I 2.27; H 3.48; E 4.17; S 3.49; T 3.88; K 3.5; M 2.08; Y 2.22; G 4; P 4.28; R 2.4
T3: K 2.03; H 2.24; S 2.12; I 1.72; V 1.79; E 2.15; F 1.71; G 2.91; Q 2.13; M 1.96; R 2.11; D 2.85; P 3.15; L 1.77; Y 2.06; W 1.74; N 2.42; A 2.06; C 1.85
E16: A 1.99; R 1.83; P 2.79; S 1.89; H 1.97; G 2.62; Q 1.48; M 2.92; C 1.9; N 2.17; T 1.72; Y 1.94; K 1.89; D 3.2; F 2.14
N7: D 3.11; Q 2.38; C 3.03; I 2.05; H 1.92; R 2.25; F 1.78; M 1.67; V 2.66; E 2.21; K 2.43; P 3.41; T 2.62; W 1.49; L 2.48; A 2.83; S 2.45; G 2.59; Y 1.62
A1: C 1.74; S 2.46; I 1.76; T 1.81; V 2.06; E 2.1; N 2.44; G 1.74; L 1.75; H 2.62; P 3.16; K 2.58; R 2.84; M 1.61; F 1.86; Y 2.2; D 2.47; Q 3.22; W 1.86
N10: D 2.01; F 2.53; R 2.24; E 2.01; P 3.37; M 2.1; K 2.48; Y 2.07; S 2.42; I 1.86; C 2; V 2; W 1.68; A 1.84; Q 3.5; T 2.19; H 2.19; L 1.64; G 2.79
R13: Q 3.17; N 3.75; H 3.03; P 3.62; G 3.46; S 3.15; E 3.96; C 2.08; W 2.42; T 2.99; L 3.24; F 1.8; V 1.49; A 2.33; M 2.56; D 4.24; Y 2.17; K 2.67
L8: Y 3.22; Q 4.06; G 4.02; S 4.28; H 3.85; M 3.3; F 3.78; K 3.98; D 4.36; W 2.83; N 3.79; C 3.81; P 4.09; E 4.29; A 4.35; T 3.92; I 2.79; V 3.14; R 3.38
M4: W 2.27; D 4.08; N 3.76; F 2.51; R 3.22; S 4.04; P 3.74; T 3.78; K 3.77; L 1.63; H 3.81; Q 4.04; I 2.96; E 4.4; C 3.13; Y 3.13; V 3.18; G 4.19; A 4.14
L14: G 3.96; S 3.08; H 3.86; M 2.34; V 2.47; T 3.5; R 3.4; D 4.59; F 2.62; A 3.33; Q 3.12; P 3.69; K 3.89; Y 2.13; C 3.33; E 3.64; I 1.87; W 1.59; N 4.2
V17: D 3.57; C 1.98; W 2.09; H 2.35; Y 2.47; F 2.37; Q 2.43; I 2.16; R 2.88; G 3.71; S 3.25; P 4.04; L 3.28; E 2.97; N 2.07; K 2.38; A 2.54; M 2.04; T 3.14
E18: F 3.08; D 2.9
I15: C 3.64; T 4.25; R 3.89; H 3.95; G 3.77; S 3.6; D 4.49; V 3.42; Q 4.4; M 3; E 4.99; Y 2.95; L 2.82; P 4.02; W 2.8; K 3.9; F 3.39; A 4; N 3.94
C11: V 2.75; N 3.92; T 2.21; A 2.21; K 3.59; R 3.34; W 2.21; M 2.95; F 2.56; Y 2.51; L 2.32; G 3.23; D 4.07; P 3.49; H 3.63; Q 4.09; I 2.3; E 3.9; S 2.37
A9: I 1.89; D 4.18; M 2.57; C 2.48; G 3.16; W 1.39; T 2.85; K 2.3; P 3.84; Y 2; S 2.64; N 2.49; H 2.34; F 1.81; E 3.65; Q 2.91; R 2.31; V 2.71; L 2.06
E12: K 2.46; H 2.42; V 1.8; C 1.55; N 2.93; G 2.06; T 2.06; R 1.71; S 2.92; F 2.22; D 3.1; W 2.71; A 1.75; P 2.37; Y 2.13; Q 2.41; L 1.7; M 2.54; I 2.73
E6: F 2.45; W 1.81; G 2.15; C 2.27; K 1.77; A 1.83; Q 1.3; M 4.33; P 2.89; D 2.8; S 1.65; N 1.96; T 1.74; R 1.51; H 2.09; I 2.69; Y 2.76
A5: D 3.78; H 2.01; Y 2.71; L 2.48; S 2.55; P 3.44; E 4.16; K 2.51; C 2.27; Q 2.05; G 3.11; N 2.7; I 3.19; T 2.83; V 2.03; F 2.07; R 1.93; M 2.58; W 1.81

Variants of: B2
Experiment: as above
Details: c terminus: a fixed tail appended

Protein stability index: each site, then its substitutions
L24: A 3; K 3.14; V 2.38; H 1.14; F 3.24; W 2.98; D 2.69; T 2.55
Q23: W 2.58; V 2.11; P 1.64; M 2.93; S 3.29; T 5.09; R 2.52; N 3.14
